Reference: PMC8213707, “Structural basis for the ARF GAP activity and specificity of the C9orf72 complex” (Nature Communications, 2021)

T1: SMCR8 of the STREP-STREP-FLAG-ARF1-SMCR8 fusion (UniProt Q8TEV9 1-937)
T1 construct: SMCR8; In the structure its N-terminus is joined to the C terminus of ARF1 E17-K181, which carries the N-terminal STREP-STREP-FLAG tag, on one chain; also called Smith-Magenis chromosome regions 8
T1 sequence: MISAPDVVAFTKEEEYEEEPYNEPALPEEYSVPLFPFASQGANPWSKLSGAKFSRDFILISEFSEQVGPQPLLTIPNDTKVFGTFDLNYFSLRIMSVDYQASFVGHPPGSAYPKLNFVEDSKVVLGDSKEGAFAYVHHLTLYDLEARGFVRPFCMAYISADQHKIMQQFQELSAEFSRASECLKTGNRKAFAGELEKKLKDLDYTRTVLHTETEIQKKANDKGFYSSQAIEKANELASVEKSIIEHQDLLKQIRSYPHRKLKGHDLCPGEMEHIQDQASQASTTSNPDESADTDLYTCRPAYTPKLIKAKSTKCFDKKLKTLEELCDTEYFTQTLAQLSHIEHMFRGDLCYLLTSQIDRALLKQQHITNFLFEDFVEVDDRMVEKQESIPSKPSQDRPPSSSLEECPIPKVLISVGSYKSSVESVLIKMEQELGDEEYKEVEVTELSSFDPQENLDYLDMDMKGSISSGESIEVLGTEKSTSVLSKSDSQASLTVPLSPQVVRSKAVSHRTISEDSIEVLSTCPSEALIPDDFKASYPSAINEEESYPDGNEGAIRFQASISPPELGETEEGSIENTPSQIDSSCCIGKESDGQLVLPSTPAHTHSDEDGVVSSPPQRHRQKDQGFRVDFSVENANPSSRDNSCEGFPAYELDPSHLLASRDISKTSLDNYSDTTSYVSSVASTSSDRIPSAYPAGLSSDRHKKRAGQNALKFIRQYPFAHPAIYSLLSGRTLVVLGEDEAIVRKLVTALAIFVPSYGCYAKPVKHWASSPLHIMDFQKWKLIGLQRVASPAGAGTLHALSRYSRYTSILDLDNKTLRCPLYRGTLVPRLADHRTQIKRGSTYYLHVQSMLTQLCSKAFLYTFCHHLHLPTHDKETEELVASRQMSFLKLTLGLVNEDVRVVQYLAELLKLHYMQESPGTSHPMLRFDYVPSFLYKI

B1: C9orf72 (subunit of the C9orf72:ARF1-SMCR8:WDR41 complex) (natural protein)
chain: MSTLCPPPSPAVAKTEIALSGKSPLLAATFAYWDNILGPRVRHIWAPKTEQVLLSDGEITFLANHTLNGEILRNAESGAIDVKFFVLSEKGVIIVSLIFDGNWNGDRSTYGLSIILPQTELSFYLPLHRVCVDRLTHIIRKGRIWMHKERQENVQKIILEGTERMEDQGQSIIPMLTGEVIPVMELLSSMKSHSVPEEIDIADTVLNDDDIGDSCHEGFLLNAISSHLQTCGCSVVVGSSAEKVNKIVRTLCLFLTPAERKCSRLCEAESSFKYESGLFVQGLLKDSTGSFVLPFRQVMYAPYPTTHIDVDVNTVKQMPPCHEHIYNQRRYMRSELTAFWRATSEEDMAQDTIIYTDESFTPDLNIFQDVLHRDTLVKAFLDQVFQLKPGLSLRSTFLAQFLLVLHRKALTLIKYIEDDTQKGKKPFKSLRNLKIDLDLTAEGDLNIIMALAEKIKPGLHSFIFGRPFYTSVQERDVLMTF
notes: C9orf72; not shown: GST, N-terminal, cleaved

Legend:
Conditions in all cases: both partners purified
[1] = target: T1, SMCR8 of the …; experiment: cryo-EM structure; chimeric C9orf72:ARF1-SMCR8:WDR41 complex, GDP-bound, incubated with BeF3^- overnight; 20 mM HEPES pH 7.4, 200 mM NaCl, 2 mM MgCl2, 0.5 mM TCEP; 3.9 Å reconstruction
[2] = target: B1; experiment: as above
[3] = target: T2, C9orf72:SMCR8:WDR41 complex (wild type) (UniProt Q96LT7 1-481; Q8TEV9 1-937; Q9HAD4 1-459); experiment: SEC; 15 μM C9orf72:SMCR8:WDR41 incubated with 15-fold ARF1^Q71L in 500 μl overnight, injected into Superose 6 Increase 10/300
T2 construct: C9orf72; SMCR8 (Smith-Magenis chromosome regions 8); WDR41 (WD repeat-containing protein 41), cloned without a tag; The methods describe the purification for the fusion complex; also called C9orf72 complex; GAP complex; not shown: GST, N-terminal, cleaved; copies: + +

binding result [1] | binding result [2] | binding result [3] | Binder
binds | binds | – | ARF1 (residues E17-K181) of the STREP-STREP-FLAG-ARF1-SMCR8 fusion (domain or fragment, ARF1, residues E17-K181; In the structure this ARF1 is joined by its C terminus to the N-terminus of SMCR8 on one chain (STREP-STREP-FLAG-ARF1-SMCR8, inserted by KpnI sites); also called ARF1-GDP-BeF3^-) not shown
binds | – | – | B1
binds | – | – | WDR41 (subunit of the C9orf72:ARF1-SMCR8:WDR41 complex) (natural protein, WDR41, cloned without a tag; also called WD repeat-containing protein 41) MLRWLIGGGREPQGLAEKSPLQTIGEEQTQNPYTELLVLKAHHDIVRFLVQLDDYRFASAGDDGIVVVWNAQTGEKLLELNGHTQKITAIITFPSLESCEEKNQLILTASADRTVIVWDGDTTRQVQRISCFQSTVKCLTVLQRLDVWLSGGNDLCVWNRKLDLLCKTSHLSDTGISALVEIPKNCVVAAVGKELIIFRLVAPTEGSLEWDILEVKRLLDHQDNILSLINVNDLSFVTGSHVGELIIWDALDWTMQAYERNFWDPSPQLDTQQEIKLCQKSNDISIHHFTCDEENVFAAVGRGLYVYSLQMKRVIACQKTAHDSNVLHVARLPNRQLISCSEDGSVRIWELREKQQLAAEPVPTGFFNMWGFGRVSKQASQPVKKQQENATSCSLELIGDLIGHSSSVEMFLYFEDHGLVTCSADHLIILWKNGERESGLRSLRLFQKLEENGDLYLAV
– | – | binds | ARF1^Q71L (residues E17-K181), GTP-locked mutant (domain or fragment, ARF1, residues E17-K181 (N-terminal myristoylated amphipathic helix removed); source: E. coli BL21 DE3 star, purified (Ni-NTA, Superdex 75)) not shown
